Molecular target: ADP/ATP carrier (S. cerevisiae (endogenous in strain GA74)) (UniProt P18239)
Assay: native gel or EMSA

Substance: ADP/ATP carrier (from UniProt P18239 1-318) (natural protein)
- stoichiometry N: 2
